Test results reported in patent CN113912720A (BLOOD DISEASES HOSPITAL CHINESE ACADEMY OF MEDICAL SCIENCES …, dated 2022).

Target: T1, 人BCMA蛋白 (on 3T3-BCMA cells) (human, UniProt Q02223 1-54)
T1 construct: extracellular domain; also called 3T3-BCMA细胞表面BCMA蛋白; CD269
T1 sequence (looked up): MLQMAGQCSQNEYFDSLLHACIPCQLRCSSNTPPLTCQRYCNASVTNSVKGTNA
Experiment: Flow cytometry: PE-labelled 69G8 titrated from 400 nM to 0.025 nM on 3T3-BCMA cells; mean fluorescence fitted with GraphPad Prism 7

B1: 抗人BCMA单克隆抗体69G8 (antibody, V domains shown)
VH: QVQLQQSGAEVVRPGTSVKVSCKASGYAFTNYLIEWVKQRPGQGPEWIGVITPGRGDTKYNAKFAGKATLTADKSSSTAYMQLSSLTFDDSAVYFCARGTTAWFPYWGQGTLVTVSA
VL: DIVLTQSPASLTVSLGQRATISCRASKSVSTSGYSYMHWYQQKPRQPPKLLIYLASNLESGVPARFSGSGSGTDFTLNIHPVEEEDAATYYCQHSRDLPYTFGGGTKLEIKR
notes: also called 69G8抗体; PE标记抗体69G8
In the case of B1, the Kd is reported as 13.8 nM.
